Laboratory results reported in patent publication US20100029702A1, “Method For Identification of Compound Having Anti-Anxiety Effect” (priority 2006, published 2010).

Columns and labels:
[1] = target: T1, variant 3 (Homo sapiens, UniProt O60241, DEL364-418); test: Changes in intracellular Ca2+ concentration in variant 3 gene stably-expressing strain; assay type: cell-based; conditions: variant 3 stably-expressing strain; CCK-8S 10 pM to 1 μM, figure at 1 nM
T1 construct: a vector expressing each full-length cDNA clone was constructed; expressed in transfected cells; host or cells: CHO-K1 (variant3/CHO#14-18), variant3/pcDNA3.1
T1 sequence (O60241 with tags, fused parts or gaps DEL364-418): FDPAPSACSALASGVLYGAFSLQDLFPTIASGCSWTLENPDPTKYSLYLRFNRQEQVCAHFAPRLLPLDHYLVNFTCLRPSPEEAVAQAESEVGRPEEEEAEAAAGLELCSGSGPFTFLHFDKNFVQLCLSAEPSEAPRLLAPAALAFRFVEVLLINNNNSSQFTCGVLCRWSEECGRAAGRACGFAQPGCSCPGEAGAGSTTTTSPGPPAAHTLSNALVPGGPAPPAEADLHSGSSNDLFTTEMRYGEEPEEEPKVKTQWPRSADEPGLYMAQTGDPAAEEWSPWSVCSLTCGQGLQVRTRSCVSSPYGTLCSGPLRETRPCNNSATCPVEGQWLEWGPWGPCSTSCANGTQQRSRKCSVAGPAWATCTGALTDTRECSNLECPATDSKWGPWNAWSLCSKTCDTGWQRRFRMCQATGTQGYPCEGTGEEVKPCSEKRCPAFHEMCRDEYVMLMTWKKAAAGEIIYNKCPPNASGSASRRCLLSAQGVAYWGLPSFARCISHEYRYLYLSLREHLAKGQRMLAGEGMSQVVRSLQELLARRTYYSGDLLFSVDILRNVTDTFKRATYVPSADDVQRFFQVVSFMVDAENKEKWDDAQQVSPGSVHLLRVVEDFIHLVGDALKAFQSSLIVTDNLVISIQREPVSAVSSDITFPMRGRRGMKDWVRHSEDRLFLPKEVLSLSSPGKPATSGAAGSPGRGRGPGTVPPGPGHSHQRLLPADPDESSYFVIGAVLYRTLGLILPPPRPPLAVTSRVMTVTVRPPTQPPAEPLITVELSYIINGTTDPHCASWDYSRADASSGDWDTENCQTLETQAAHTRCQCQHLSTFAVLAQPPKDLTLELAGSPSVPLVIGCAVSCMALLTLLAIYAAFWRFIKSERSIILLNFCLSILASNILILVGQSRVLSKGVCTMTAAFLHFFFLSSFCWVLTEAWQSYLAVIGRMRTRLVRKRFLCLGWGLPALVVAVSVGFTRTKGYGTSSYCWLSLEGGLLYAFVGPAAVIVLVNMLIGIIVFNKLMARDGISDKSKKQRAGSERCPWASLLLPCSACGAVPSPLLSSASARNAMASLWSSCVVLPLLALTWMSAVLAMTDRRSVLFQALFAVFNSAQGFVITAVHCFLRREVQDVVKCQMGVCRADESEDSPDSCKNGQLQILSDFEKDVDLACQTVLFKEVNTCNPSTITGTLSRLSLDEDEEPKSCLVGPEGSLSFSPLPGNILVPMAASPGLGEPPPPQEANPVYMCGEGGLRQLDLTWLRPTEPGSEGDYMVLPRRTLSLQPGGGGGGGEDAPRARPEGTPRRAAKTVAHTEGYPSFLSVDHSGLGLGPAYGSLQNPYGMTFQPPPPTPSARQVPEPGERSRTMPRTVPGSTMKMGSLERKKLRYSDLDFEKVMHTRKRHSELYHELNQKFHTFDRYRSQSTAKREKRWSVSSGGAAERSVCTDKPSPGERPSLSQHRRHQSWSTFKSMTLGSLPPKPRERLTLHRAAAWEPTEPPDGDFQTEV
Experimental: (§1) Strains stably expressing splicing variants of the variant 3 gene were prepared by a method similar to the above-mentioned method using a variant 3 gene-expressing vector.
(§2) To analyze functions of the variant 3 gene, changes in the intracellular calcium (Ca^2+) concentration induced by CCK-8S were examined using a strain stably expressing the variant 3 gene prepared in Example 7. Changes in the intracellular calcium (Ca^2+) concentration were measured by a method similar to the method described in Example 5.
(§3) Cells were seeded in a 96-well plate (a plate with a black wall and a transparent bottom) at a cell count of 3×10^4/100 μL of medium/well and cultured overnight at 37° C. in a 5% CO2 incubator. On the following day, 50 μL of the medium was removed from each well, 50 μL of a loading buffer was added to each well, the mixture was reacted at room temperature for 1 h, so that a fluorescent dye contained in the loading buffer was taken up into the cell. The loading buffer was prepared by a method similar to the method described in Example 5. After reaction, changes over time in the fluorescence intensity after addition of CCK-8S in each well were measured using the FLEX station (Molecular Device) for 40 sec. CCK-8S was used at a final concentration of 10 pM to 1 μM. Furthermore, as a positive control of the assay, A23187 was used at a final concentration of 20 μM.

[2] = tested on: variant 3; test: as above; assay type: cell-based, human; conditions: variant3/CHO#14-18; A23187 20 μM, positive control
Experimental: as §1, §2, §3

Row | Compound | Change in intracellular Ca2+ concentration after addition of CCK-8S [1] | Change in intracellular Ca2+ concentration (fluorescence intensity) [2]
1 | cholecystokinin octapeptide sulfated form [CCK-8S] | increase | 
2 | CNc1ccc2oc(C[C@H]3O[C@@]4(CC[C@H]3C)O[C@H]([C@H](C)C(=O)c3ccc[nH]3)[C@H](C)C[C@H]4C)nc2c1C(=O)O [A23187] |  | increased
